B1: AP-sNgR^C-term (LRRCT domain together with the unique domain of NgR, residues 261-445, AP fusion) (receptor)
chain: PWVCDCRARPLWAWLQKFRGSSSEVPCNLPQRLAGRDLKRLAASDLEGCAVASGPFRPFQTNQLTDEELLGLPKCCQPDAADKASVLEPGRPASAGNALKGRVPPGDTPPGNGSGPRHINDSPFGTLPGSAEPPLTALRPGGSEPPGLPTTGPRRRPGCSRKNRTRSHCRLGQAGSGSSGTGDAE
notes: Soluble, made in HEK293T cells; also called AP-sNgRCTu [Pro261-Glu445]; AP-NgR^C-term; not shown: alkaline phosphatase (AP) tag

Key:
[1] = target: NgR2 (full-length, N-terminally myc-tagged rat NgR2) (rat) (UniProt Q80WD1); assay: MAG-Fc binding to NgR2 expressing COS-7 cells
[2] = target: NgR2 (full-length, N-terminally myc-tagged rat NgR2) (rat) (UniProt Q80WD1); assay: Scatchard plot analysis, MAG-Fc on NgR2 expressing COS-7 cells
[3] = target: NgR2 (full-length, N-terminally myc-tagged rat NgR2) (rat) (UniProt Q80WD1); assay: MAG-Fc binding to transfected COS-7 cells, direct comparison with NgR
[4] = target: NgR2 (full-length, N-terminally myc-tagged rat NgR2) (rat) (UniProt Q80WD1); assay: estimated from the 5 fold comparison on COS-7 cells and the literature Kd of MAG-Fc/NgR
[5] = target: T1, NgR1 (Nogo receptor; full-length, N-terminally myc-tagged rat NgR) (rat, UniProt Q99M75 26-447); assay: AP-ligand binding to transfected COS-7 cells
T1 construct: GPI-linked; Expressed on COS-7 cells, in HEK293T cells (co-IP) and by adenovirus in rat DRG neurons; the tag is stated only for the COS-7 construct; also called myc-NgR[Pro26-Cys473]
T1 sequence: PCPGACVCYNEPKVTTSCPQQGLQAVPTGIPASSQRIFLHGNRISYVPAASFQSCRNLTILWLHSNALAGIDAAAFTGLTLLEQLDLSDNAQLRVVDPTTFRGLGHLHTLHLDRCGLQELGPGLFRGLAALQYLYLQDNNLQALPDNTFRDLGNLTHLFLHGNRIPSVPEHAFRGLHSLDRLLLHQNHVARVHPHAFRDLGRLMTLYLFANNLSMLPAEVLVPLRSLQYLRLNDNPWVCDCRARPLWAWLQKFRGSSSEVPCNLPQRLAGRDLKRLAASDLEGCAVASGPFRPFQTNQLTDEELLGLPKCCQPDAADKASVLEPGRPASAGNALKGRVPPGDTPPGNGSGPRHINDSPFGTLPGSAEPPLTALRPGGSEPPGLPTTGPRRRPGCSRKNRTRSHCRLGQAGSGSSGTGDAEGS

[6] = target: T2, NgR2 (full-length, N-terminally myc-tagged rat NgR2) (rat, UniProt Q80WD1 30-390); assay: AP-ligand binding to transfected COS-7 cells
T2 construct: also called myc-NgR2[Ser30-Leu420]
T2 sequence: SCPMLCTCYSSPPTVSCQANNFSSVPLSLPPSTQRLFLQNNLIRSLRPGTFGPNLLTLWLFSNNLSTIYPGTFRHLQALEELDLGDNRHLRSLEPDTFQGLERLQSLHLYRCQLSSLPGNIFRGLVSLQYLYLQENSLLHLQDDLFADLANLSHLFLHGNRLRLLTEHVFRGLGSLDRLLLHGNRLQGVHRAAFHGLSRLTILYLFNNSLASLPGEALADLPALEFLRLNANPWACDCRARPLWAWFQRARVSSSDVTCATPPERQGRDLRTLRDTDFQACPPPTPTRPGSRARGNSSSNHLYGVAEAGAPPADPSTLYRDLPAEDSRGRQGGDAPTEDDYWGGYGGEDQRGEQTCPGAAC

[7] = target: T3, NgR3 (full-length, N-terminally myc-tagged rat NgR3) (rat, UniProt Q80WD0 24-424); assay: AP-ligand binding to transfected COS-7 cells
T3 construct: also called myc-NgR3[Gly24-Arg445]
T3 sequence: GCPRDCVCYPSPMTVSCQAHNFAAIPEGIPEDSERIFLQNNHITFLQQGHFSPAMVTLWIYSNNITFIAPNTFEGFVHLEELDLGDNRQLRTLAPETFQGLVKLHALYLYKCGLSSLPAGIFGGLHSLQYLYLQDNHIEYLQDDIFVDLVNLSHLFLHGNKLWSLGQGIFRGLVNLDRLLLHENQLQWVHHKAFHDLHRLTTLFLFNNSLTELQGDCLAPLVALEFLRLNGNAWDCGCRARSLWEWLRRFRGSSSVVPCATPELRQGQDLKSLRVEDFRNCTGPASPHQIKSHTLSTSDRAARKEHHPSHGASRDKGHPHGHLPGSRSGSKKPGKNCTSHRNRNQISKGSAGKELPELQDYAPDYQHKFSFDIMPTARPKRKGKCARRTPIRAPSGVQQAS

Molecule | concentration at which binding saturates [1] [nM] | Kd [2] [nM] | fold tighter binding than to NgR [3] [fold] | Kd [4] [nM] | binding result [5] | binding result [6] | binding result [7]
MAG-Fc (MAG ectodomain fused to the Fc fragment of human immunoglobulin) (Fc fusion) | 5 to 10 | 2 | 5 | 1 to 2 |  |  | 
B1 |  |  |  |  | no binding | no binding | no binding
